In test [1] the target is T1, hemagglutinin (HA) of influenza A/Solomon Islands/3/06 H1N1 (Influenza A virus A/Solomon …). The experiment in a line: cell-based or functional assay.
Test [2] addresses T2, hemagglutinin (HA) of influenza A/Japan/305/57 H2N2 (Influenza A virus A/Japan/305/1957 …, UniProt P03451 16-562). Briefly: ELISA, inactivated whole virions coated; transfection supernatant set 2.
The target of test [3] is T1, hemagglutinin (HA) of influenza …. Described as above.
In test [4] the target is T2, hemagglutinin (HA) of influenza …. The experiment in a line: ELISA, inactivated whole virions coated; transfection supernatant set 3. (In general: In an ELISA, binding on a coated surface is turned into a signal by an enzyme label.)
For test [5], the target named is T1, hemagglutinin (HA) of influenza …. Described as above.
For test [6], the target named is hemagglutinin (HA) on live influenza A virus A/Solomon Islands/3/06 H1N1 (Influenza A virus A/Solomon …). The experiment in a line: cell-based or functional assay.
For test [7], the target named is hemagglutinin (HA) on live influenza A virus A/Wisconsin/67/05 H3N2 (Influenza A virus A/Wisconsin/67/2005 …). The experiment in a line: cell-based or functional assay.

Data on twelve molecules can be found in patent US20120207760A1 (THERACLONE SCIENCES, published 2012).

B1: TCN-526 (5084_C17) (antibody, V domains shown)
VH: EVLMVESGGGLVQPGGSVRLSCVASGFSFSSHWMTWVRQAPGKGLEWVANIEDDGGDKYYVDSVKGRFIISRDNAKNSVYLQMNSLRAEDTAVYFCARGSGSSDRSDYDPHYYYYLDVWGKGATVTVSS
VL: DIQLTQSPSSLSASVGDRVTITCRASQSISRYLNWYQQKPGKAPKLLLFAASTLLDGVPSRFSGSGSGTDFTLTISSLQPEDFATYYCQRNHSPSWTFGQGTRVEIK
Take B1: the “% Neutralization” value in test [1] was determined as 0%. Moreover, the OD450 is 0.07 OD450 in test [2] and 0.08 OD450 in test [3].

B2: TCN-529 (5297_H01) (antibody, V domains shown)
VH: QITLRESGPTLVKPTQTLTLTCTFSGFSLSTNGVNVGWIRQPPGKALEWLALIYWDDDKRYSPSLKRRLTITKDTSKNQVVLTLTNMDPVDTATYYCAHRPDFYGDFEYWGPGTLVTVSS
VL: QSALTQPASVSGSPGQSITISCTGSSSDIGGYNYVSWYQQHPGKAPKLMIYDVNNRPSGVSNRFSGSKSGNTASLTISGLQTDDEADYYCGSYTGSPHYVFGTGTKVTVL
On to B2, for which the results for the OD450 in test [4] and in test [5] were 0.1 OD450 and 0.16 OD450, respectively. Also, the “% Neutralization” value in test [1] amounted to 0%.

B3: TCN-527 (5086_C06) (antibody, V domains shown)
VH: QVQLQESGPGLVKPSETLSLNCAVSGGSISNYYWSWIRQPPGKGLEWIGYISYNGRPKYNPSLTSRVTISVDTSKDQFSLELRSVTAADTALYYCARETRFGELLSPYDAFEIWGQGTMVTVSS
VL: DIQMTQSPSSLSASVGDRVTMTCRASQNIRSYLNWYQQRPGTAPKLLIYAASTLHSGVPSRFSGGGSGTDFTLTINNLQPEDFASYYCQQSYDNPQTFGQGTKVEIK
For the molecule B3, in test [1], the “% Neutralization” value was determined as 12%. Further, the OD450 in test [2] came out at 3.63 OD450; in test [3], 3.69 OD450.

B4: TCN-530 (5248_H10a) (antibody, V domains shown)
VH: QVQLVQSGAEVRKPGSSVKVSCKASGGPFMSYAIGWVRQAPGQGLEWMGGINPVFGRPHYAQKFQGRVTIATDDSTKTSYMELSSLTSEDTGMYYCASRYSRSSPGTFESWGQGTLVTVSS
VL: EIVMTQFPATLSVSPGERVTLSCRASQSVSNNLAWYQQKPGQPPRLLIYDASTRATGVPAKFSGTGSGTEFTLSISSLQSEDFAVYYCQQYHNWPPSYSFGLGTKLEIK
Regarding B4, the values for the OD450 in test [4] and in test [5] were 3.43 OD450 and 3.62 OD450, respectively. Also, the “% Neutralization” value in test [1] stood at 64%.

B5: TCN-558 (5248_H10b) (antibody, V domains shown)
VH: QVQLVQSGSEVKKPGTSVKVSCTASGSVFTNYGISWVRQAPGQGLEWMGGIIPLFGAAKYAQKFQGRVTITADESTKTVYMELSRLTSKDTAIYFCAKAPRVYEYYFDQWGQGTPVTVSS
VL: EIVMTQFPATLSVSPGERVTLSCRASQSVSNNLAWYQQKPGQPPRLLIYDASTRATGVPAKFSGTGSGTEFTLSISSLQSEDFAVYYCQQYHNWPPSYSFGLGTKLEIK
B5: the results for the “% Neutralization” value in test [6] and in test [7] were 84% and 7%, respectively.

B6: TCN-533 (5256_A17) (antibody, V domains shown)
VH: QVQLVQSGADVKKPGSSVTVSCKASGGSFSNYGINWVRQAPGQGLEWMGGIIPLINAPNYAPKFQGRVTITADMFSNIVSLQLTSLRTDDTAVYYCARRKMTTAIDYWGQGTLVTVSS
VL: QPVLSQPPSASASLGASVTLTCTLSSGFDNYQVAWYQQRPGKGPRFVMRVGNGGNVASKGDGIPDRFSVSGSGLNRYLTIKNIQEDDESDYYCGADHGSGNNFVSPYVFGGGTKLTVL
For B6, the OD450 amounted to 3.65 OD450 in test [4] and 3.61 OD450 in test [5]. Further, the “% Neutralization” value in test [1] worked out at 56%.

B7: TCN-531 (5091_H13) (antibody, V domains shown)
VH: EVQLVESGGDLVQPGRSLKLSCTGSGFTFGDYGVTWVRQAPGKGLEWVGFIRTRPWGGTADTAASVKGRFTISRDDSKSLAYLQMNSLKTEDTAVYYCCRDAPPNVEVASMTNWYFDLWGRGTLVTVSS
VL: DIQLTQSPSSLSASVGDRVTITCRASQGILNCLAWYQQKPGKVPNLLMYAASTLQSGVPSRFSGSGFGTDFTLTISSLQPEDVATYYCQTYGGVSTFGGGTKVEIR
In the case of B7, the OD450 in test [4] was 0.09 OD450; in test [5], 0.1 OD450. Besides, in test [1], the “% Neutralization” value stood at 65%.

B8: TCN-522 (3212_I12) (antibody, V domains shown)
VH: QVQLQQWGAGLLKPSETLSLTCTVSGGSLTDYSWNWIRQPPGKGLEWIGDTLHNGYTNYNPSLRGRVSISIDTSKNQVSLRLTSVTAADTALYYCARGSGGYGGFDYFGKLRTWDFWGQGTLVTVSS
VL: DIQLTQSPSSLSASVGDRVTITCRASQGIRNDLGWYQQKPGNAPKRLIFGASSLQSGVPSRFSGSGSGTEFTLTISSLQPEDFATYYCLQHNSYPYTFGQGTKLEIK
B8: in test [1], the “% Neutralization” value stood at 33%. Also, the OD450 is 0.61 OD450 in test [2] and 3.48 OD450 in test [3].

B9: TCN-528 (5087_P17) (antibody, V domains shown)
VH: QVQLVQSGSEVKKPGASVKVSCKASGYTFTNYDINWIRQAPGQGLEWMGWINPNSGTTGSAQRFQGRVTITVDTSITTVYMELSSLRSDDTAIYYCARGRELLRLQHFLTDSQSERRDCFDPWGQGTLVTVSS
VL: DIQMTQSPSSLSASVGDRVTITCRANQDIGIYLNWYQQNPGKVPKLLLHGASSLQGGVPSRFSASGSGTDFTLTIHSLQPEDLATYYCQQSRRLPYTFGQGTRVELK
Consider B9, for which the “% Neutralization” value in test [1] was determined as 0%. Also, the results for the OD450 in test [2] and in test [3] were 3.64 OD450 and 3.66 OD450, respectively.

B10: TCN-532 (5262_H18) (antibody, V domains shown)
VH: QVQLQESGPGLVKPSETLSLTCTVSGGSVSSETYYWSWIRQPPGKGLEWIGYIYYIGNTDYRPSLKSRVTISLDTSKNQFSLKLSSVTAADTAVYYCARGAYYDSSGYPAFYIWGQGTMVTVSS
VL: QSVLTQPPSVSGAPGQRVTISCTGSSSNIGSDYDVHWYKQLPGTAPKLLIFGNSNRPSGVPDRFSGSKSGTSASLAITGLQAEDEADYYCQSYDSSLSGFHVFGSGTKVTVL
Turning to B10, the OD450 in test [4] is 0.08 OD450; in test [5] it was 0.13 OD450. Also, in test [1], the “% Neutralization” value was 11%.

B11: TCN-555 (5246_L16) (antibody, V domains shown)
VH: QVQLVQSGAEVKRPGSSVKVSCTASGGIFRKNAISWVRQAPGQGLEWMGGIIAVFNTANYAQKFQNRVKITADESGNTAYMELSSLTSDDTAVYYCASHPKYFYGSGSYPDFWGQGTLVTVSS
VL: QSALTQPRSVSGSPGQSITISCTGGSSDIGASNSVSWYQQHPGKAPKLVIFDVTERPSGVPHRFSGSKSGNTASLTVSGLQPDDEADYFCCAYGGKYLVVFGGGTKVTVL
As to B11, the “% Neutralization” value in test [6] is 49%; in test [7], 5%.

B12: TCN-563 (5237_B21) (antibody, V domains shown)
VH: QVQLAQSGAEVKRPGSSVKVSCTASGGIFRKNAISWVRQAPGQGLEWMGGIIAVFNTANYAQKFQGRVKITADESGNTAYMELSSLRSDDTAVYYCASHPKYFYGSGSYPDFWGQGTLVTVSS
VL: QSALTQPRSVSGSPGQSVTISCTGSSSDVGASNSVSWYQQHPGKAPKLVIYDVTERPSGVPHRFSGSKSGNTASLTVSGLQPEDEADYFCCAYGGKYLVVFGGGTKVTVL
Consider B12, for which the “% Neutralization” value in test [1] was determined as 78%. For the same molecule, the OD450 worked out at 0.84 OD450 in test [2] and 3.6 OD450 in test [3].
